Experiments:
Experiment in all cases: holdup assay
Design in all cases: key: below the threshold = too weak to quantify, mostly under pKd 3.1 to 4
AHNAK1, Q09666 = target: AHNAK1, Q09666
APBA3_1, O96018 = target: T1, APBA3_1, O96018
T1 sequence (O96018 389-490, limits assumed, looked up): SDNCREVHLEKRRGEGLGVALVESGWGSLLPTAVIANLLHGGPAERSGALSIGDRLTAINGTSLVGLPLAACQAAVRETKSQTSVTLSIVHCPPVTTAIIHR

DLG1_3, Q12959 = target: DLG1_3, Q12959
DLG3_3, Q92796 = target: T2, DLG3_3, Q92796
T2 sequence (Q92796 374-475, limits assumed, looked up): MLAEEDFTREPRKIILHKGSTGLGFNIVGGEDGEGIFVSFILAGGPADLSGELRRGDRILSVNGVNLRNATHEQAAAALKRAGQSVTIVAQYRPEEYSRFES

DLG4_3, P78352 = target: DLG4_3, P78352
DLG5_1, Q8TDM6 = target: DLG5_1, Q8TDM6
FRMPD3, Q5JV73 = target: FRMPD3, Q5JV73
GRASP, Q7Z6J2 = target: GRASP, Q7Z6J2
IL16_4, Q14005 = target: IL16_4, Q14005
Inadl_2, Q8NI35 = target: Inadl_2, Q8NI35
Inadl_6, Q8NI35 = target: Inadl_6, Q8NI35
Inadl_9, Q8NI35 = target: Inadl_9, Q8NI35
LIN7B, Q9HAP6 = target: T3, LIN7B, Q9HAP6
T3 sequence (Q9HAP6 88-185, limits assumed, looked up): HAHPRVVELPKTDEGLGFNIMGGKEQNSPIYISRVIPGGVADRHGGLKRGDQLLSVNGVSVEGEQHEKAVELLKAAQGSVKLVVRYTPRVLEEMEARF

LRRC7, Q96NW7 = target: T4, LRRC7, Q96NW7
T4 sequence (Q96NW7 1440-1537, limits assumed, looked up): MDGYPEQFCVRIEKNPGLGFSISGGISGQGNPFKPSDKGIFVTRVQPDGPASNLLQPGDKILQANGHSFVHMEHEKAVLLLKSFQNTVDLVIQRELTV

MAGI1_2, Q96QZ7 = target: MAGI1_2, Q96QZ7
MAST1, Q9Y2H9 = target: MAST1, Q9Y2H9
MPDZ_10, O75970 = target: T5, MPDZ_10, O75970
T5 sequence (O75970 1624-1722, limits assumed, looked up): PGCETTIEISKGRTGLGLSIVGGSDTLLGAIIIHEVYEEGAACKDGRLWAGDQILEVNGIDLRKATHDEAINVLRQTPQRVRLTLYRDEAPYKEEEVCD

MPP6, Q9NZW5 = target: T6, MPP6, Q9NZW5
T6 sequence (Q9NZW5 125-219, limits assumed, looked up): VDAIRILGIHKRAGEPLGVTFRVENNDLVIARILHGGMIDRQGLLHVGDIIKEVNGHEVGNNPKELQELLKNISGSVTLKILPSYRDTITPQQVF

NHERF2_2, Q15599 = target: NHERF2_2, Q15599
NHERF4_1, Q86UT5-2 = target: NHERF4_1, Q86UT5-2
NOS1, P29475 = target: NOS1, P29475
PARD3B_1, Q8TEW8 = target: T7, PARD3B_1, Q8TEW8
T7 sequence (Q8TEW8 196-299, limits assumed, looked up): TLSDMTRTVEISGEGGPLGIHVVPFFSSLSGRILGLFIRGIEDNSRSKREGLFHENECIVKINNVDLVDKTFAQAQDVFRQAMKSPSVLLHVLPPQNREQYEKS

PARD3_3, Q8TEW0 = target: PARD3_3, Q8TEW0
RADIL, Q96JH8 = target: T8, RADIL, Q96JH8
T8 sequence (Q96JH8 971-1071, limits assumed, looked up): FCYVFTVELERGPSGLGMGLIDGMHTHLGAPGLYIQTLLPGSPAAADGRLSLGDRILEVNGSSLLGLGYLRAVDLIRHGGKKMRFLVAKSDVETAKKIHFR

SNTG2, Q9NY99 = target: T9, SNTG2, Q9NY99
T9 sequence (Q9NY99 68-166, limits assumed, looked up): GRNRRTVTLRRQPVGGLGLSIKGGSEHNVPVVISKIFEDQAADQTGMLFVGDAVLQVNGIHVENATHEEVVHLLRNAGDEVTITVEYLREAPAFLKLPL

SNX27, Q96L92 = target: SNX27, Q96L92
SYNJ2BP, P57105 = target: T10, SYNJ2BP, P57105
T10 sequence (P57105 8-110, limits assumed, looked up): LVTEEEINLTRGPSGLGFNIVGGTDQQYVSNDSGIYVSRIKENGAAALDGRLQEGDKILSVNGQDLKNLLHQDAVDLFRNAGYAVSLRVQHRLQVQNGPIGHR

TJP2_1, Q9UDY2 = target: TJP2_1, Q9UDY2
[1] = plain residues with an end cap or a label only (N-terminal biotin on a linker: ahx)
[2] = plain residues with an end cap or a label only (N-terminal biotin on a linker: ado-ado)

MAGI1_2, Q96QZ7, sequence (Q96QZ7 456-580): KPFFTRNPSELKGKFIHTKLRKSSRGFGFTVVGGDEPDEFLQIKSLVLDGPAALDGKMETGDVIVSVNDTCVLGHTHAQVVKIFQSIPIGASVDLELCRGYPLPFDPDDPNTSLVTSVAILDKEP
DLG5_1, Q8TDM6, sequence (Q8TDM6 617-713): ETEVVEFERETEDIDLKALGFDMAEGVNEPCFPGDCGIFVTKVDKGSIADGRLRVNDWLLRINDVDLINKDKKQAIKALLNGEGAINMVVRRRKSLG
FRMPD3, Q5JV73, sequence (Q5JV73 12-100): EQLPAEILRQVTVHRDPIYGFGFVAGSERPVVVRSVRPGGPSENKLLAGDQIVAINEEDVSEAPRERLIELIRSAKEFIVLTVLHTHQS
NHERF4_1, Q86UT5-2, sequence (Q86UT5 other isoform, or with tags, fused parts or gaps): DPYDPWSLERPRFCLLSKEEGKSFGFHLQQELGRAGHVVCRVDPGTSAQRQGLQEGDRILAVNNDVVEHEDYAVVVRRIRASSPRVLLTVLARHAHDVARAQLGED
DLG1_3, Q12959, sequence (Q12959 457-571): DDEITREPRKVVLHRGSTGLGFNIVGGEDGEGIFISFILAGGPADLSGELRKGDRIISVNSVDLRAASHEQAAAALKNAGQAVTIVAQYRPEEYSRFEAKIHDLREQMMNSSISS
MAST1, Q9Y2H9, sequence (Q9Y2H9 962-1065): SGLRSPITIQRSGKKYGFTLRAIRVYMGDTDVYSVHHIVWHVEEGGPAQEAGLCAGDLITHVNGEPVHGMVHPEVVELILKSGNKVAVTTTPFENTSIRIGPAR
PARD3_3, Q8TEW0, sequence (Q8TEW0 582-685): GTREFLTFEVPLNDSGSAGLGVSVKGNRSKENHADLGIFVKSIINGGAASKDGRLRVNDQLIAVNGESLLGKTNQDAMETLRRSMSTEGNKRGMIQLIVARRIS
TJP2_1, Q9UDY2, sequence (Q9UDY2 24-128): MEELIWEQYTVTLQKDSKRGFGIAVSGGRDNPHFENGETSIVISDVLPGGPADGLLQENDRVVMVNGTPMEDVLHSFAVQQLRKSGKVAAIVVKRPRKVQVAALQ
NOS1, P29475, sequence (P29475 9-101): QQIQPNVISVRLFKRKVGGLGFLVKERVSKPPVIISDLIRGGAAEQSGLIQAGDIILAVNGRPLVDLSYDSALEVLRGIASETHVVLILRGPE
AHNAK1, Q09666, sequence (Q09666 4-100): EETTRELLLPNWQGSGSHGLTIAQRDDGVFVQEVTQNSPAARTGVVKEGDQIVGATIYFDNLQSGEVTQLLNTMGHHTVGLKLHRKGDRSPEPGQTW
Inadl_6, Q8NI35, sequence (Q8NI35 1058-1167): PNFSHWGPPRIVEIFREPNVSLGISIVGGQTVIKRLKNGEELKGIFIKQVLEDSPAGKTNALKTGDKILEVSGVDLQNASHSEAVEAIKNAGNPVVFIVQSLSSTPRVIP
GRASP, Q7Z6J2, sequence (Q7Z6J2 96-193): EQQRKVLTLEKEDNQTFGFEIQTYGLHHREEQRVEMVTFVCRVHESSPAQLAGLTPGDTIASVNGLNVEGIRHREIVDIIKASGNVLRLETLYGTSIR
IL16_4, Q14005, sequence (Q14005 1229-1329): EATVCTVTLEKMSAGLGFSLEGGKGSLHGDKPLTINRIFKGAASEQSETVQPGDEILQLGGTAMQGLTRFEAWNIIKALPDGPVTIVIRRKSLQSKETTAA
Inadl_2, Q8NI35, sequence (Q8NI35 238-335): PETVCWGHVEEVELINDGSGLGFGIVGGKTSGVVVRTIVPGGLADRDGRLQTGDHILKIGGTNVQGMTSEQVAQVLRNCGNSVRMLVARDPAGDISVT
Inadl_9, Q8NI35, sequence (Q8NI35 1530-1615): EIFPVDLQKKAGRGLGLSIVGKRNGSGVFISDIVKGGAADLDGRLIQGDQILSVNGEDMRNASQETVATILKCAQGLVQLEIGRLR
DLG4_3, P78352, sequence (P78352 306-403): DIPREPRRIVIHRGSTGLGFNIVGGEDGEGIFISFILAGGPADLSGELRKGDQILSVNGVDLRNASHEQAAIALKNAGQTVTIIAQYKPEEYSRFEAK
NHERF2_2, Q15599, sequence (Q15599 142-238): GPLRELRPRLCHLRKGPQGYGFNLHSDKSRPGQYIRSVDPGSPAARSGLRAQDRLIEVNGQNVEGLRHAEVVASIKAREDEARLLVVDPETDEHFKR

For EKQAKGDTEF [CACYBP, Q9HB71], the pKd (AHNAK1, Q09666; [1]) was “below the threshold”, the pKd (APBA3_1, O96018; [1]) was “below the threshold” and the pKd (DLG1_3, Q12959; [1]) was “below the threshold”. For the same binder, the pKd (DLG3_3, Q92796; [1]) was “below the threshold”, the pKd (DLG4_3, P78352; [1]) was “below the threshold” and the pKd (DLG5_1, Q8TDM6; [1]) was “below the threshold”. For the same binder, the pKd (FRMPD3, Q5JV73; [1]) was 3.81, the pKd (GRASP, Q7Z6J2; [1]) was “below the threshold” and the pKd (IL16_4, Q14005; [1]) was “below the threshold”. For the same binder, the pKd (Inadl_2, Q8NI35; [1]) was “below the threshold”, the pKd (Inadl_6, Q8NI35; [1]) was “below the threshold” and the pKd (Inadl_9, Q8NI35; [1]) was “below the threshold”. For the same binder, the pKd (LIN7B, Q9HAP6; [1]) was “below the threshold”, the pKd (LRRC7, Q96NW7; [1]) was “below the threshold” and the pKd (MAGI1_2, Q96QZ7; [1]) was “below the threshold”. The pKd (MAST1, Q9Y2H9; [1]) was “below the threshold”, the pKd (MPDZ_10, O75970; [1]) was “below the threshold” and the pKd (MPP6, Q9NZW5; [1]) was “below the threshold”. For the same binder, the pKd (NHERF2_2, Q15599; [1]) was 3.55, the pKd (NHERF4_1, Q86UT5-2; [1]) was “below the threshold” and the pKd (NOS1, P29475; [1]) was “below the threshold”. For the same binder, the pKd (PARD3B_1, Q8TEW8; [1]) was “below the threshold”, the pKd (PARD3_3, Q8TEW0; [1]) was “below the threshold” and the pKd (RADIL, Q96JH8; [1]) was “below the threshold”. The pKd (SNTG2, Q9NY99; [1]) was “below the threshold”, the pKd (SNX27, Q96L92; [1]) was 3.68 and the pKd (SYNJ2BP, P57105; [1]) was “below the threshold”. The pKd (TJP2_1, Q9UDY2; [1]) was “below the threshold”.

RDPPAEWTRV [PTPN18, Q99952] was tested, and the pKd (AHNAK1, Q09666; [2]) was “below the threshold”, the pKd (APBA3_1, O96018; [2]) was “below the threshold” and the pKd (DLG1_3, Q12959; [2]) was “below the threshold”. The pKd (DLG3_3, Q92796; [2]) was “below the threshold”, the pKd (DLG4_3, P78352; [2]) was “below the threshold” and the pKd (DLG5_1, Q8TDM6; [2]) was “below the threshold”. The pKd (FRMPD3, Q5JV73; [2]) was “below the threshold”, the pKd (GRASP, Q7Z6J2; [2]) was 4.66 and the pKd (IL16_4, Q14005; [2]) was 3.6. The pKd (Inadl_2, Q8NI35; [2]) was “below the threshold”, the pKd (Inadl_6, Q8NI35; [2]) was “below the threshold” and the pKd (Inadl_9, Q8NI35; [2]) was 3.66. For the same binder, the pKd (LIN7B, Q9HAP6; [2]) was “below the threshold”, the pKd (LRRC7, Q96NW7; [2]) was “below the threshold” and the pKd (MAGI1_2, Q96QZ7; [2]) was “below the threshold”. For the same binder, the pKd (MAST1, Q9Y2H9; [2]) was 4.97, the pKd (MPDZ_10, O75970; [2]) was “below the threshold” and the pKd (MPP6, Q9NZW5; [2]) was “below the threshold”. For the same binder, the pKd (NHERF2_2, Q15599; [2]) was 4.45, the pKd (NHERF4_1, Q86UT5-2; [2]) was 3.62 and the pKd (NOS1, P29475; [2]) was 3.66. The pKd (PARD3B_1, Q8TEW8; [2]) was 4.03, the pKd (PARD3_3, Q8TEW0; [2]) was 3.54 and the pKd (RADIL, Q96JH8; [2]) was 4. For the same binder, the pKd (SNTG2, Q9NY99; [2]) was 4.19, the pKd (SNX27, Q96L92; [2]) was 4.55 and the pKd (SYNJ2BP, P57105; [2]) was “below the threshold”. For the same binder, the pKd (TJP2_1, Q9UDY2; [2]) was 3.6.

For VLYPREGTEV [FOXI1, Q12951], the pKd (AHNAK1, Q09666; [2]) was “below the threshold”, the pKd (APBA3_1, O96018; [2]) was “below the threshold” and the pKd (DLG1_3, Q12959; [2]) was 3.75. The pKd (DLG3_3, Q92796; [2]) was 3.8, the pKd (DLG4_3, P78352; [2]) was 3.57 and the pKd (DLG5_1, Q8TDM6; [2]) was “below the threshold”. The pKd (FRMPD3, Q5JV73; [2]) was “below the threshold”, the pKd (GRASP, Q7Z6J2; [2]) was 4.31 and the pKd (IL16_4, Q14005; [2]) was “below the threshold”. The pKd (Inadl_2, Q8NI35; [2]) was “below the threshold”, the pKd (Inadl_6, Q8NI35; [2]) was “below the threshold” and the pKd (Inadl_9, Q8NI35; [2]) was 4.03. For the same binder, the pKd (LIN7B, Q9HAP6; [2]) was “below the threshold”, the pKd (LRRC7, Q96NW7; [2]) was 3.49 and the pKd (MAGI1_2, Q96QZ7; [2]) was 3.95. For the same binder, the pKd (MAST1, Q9Y2H9; [2]) was 4.74, the pKd (MPDZ_10, O75970; [2]) was 3.49 and the pKd (MPP6, Q9NZW5; [2]) was “below the threshold”. The pKd (NHERF2_2, Q15599; [2]) was 3.48, the pKd (NHERF4_1, Q86UT5-2; [2]) was 3.71 and the pKd (NOS1, P29475; [2]) was 4.05. For the same binder, the pKd (PARD3B_1, Q8TEW8; [2]) was “below the threshold”, the pKd (PARD3_3, Q8TEW0; [2]) was “below the threshold” and the pKd (RADIL, Q96JH8; [2]) was 3.74. It also gave a pKd (SNTG2, Q9NY99; [2]) of 3.6, a pKd (SNX27, Q96L92; [2]) of 4.31 and a pKd (SYNJ2BP, P57105; [2]) of 5.23. It also gave a pKd (TJP2_1, Q9UDY2; [2]) of 4.

For MHIQEKGFHV [EPHA6, Q9UF33], the pKd (AHNAK1, Q09666; [2]) was “below the threshold”, the pKd (APBA3_1, O96018; [2]) was “below the threshold” and the pKd (DLG1_3, Q12959; [2]) was “below the threshold”. For the same binder, the pKd (DLG3_3, Q92796; [2]) was “below the threshold”, the pKd (DLG4_3, P78352; [2]) was “below the threshold” and the pKd (DLG5_1, Q8TDM6; [2]) was “below the threshold”. The pKd (FRMPD3, Q5JV73; [2]) was “below the threshold”, the pKd (GRASP, Q7Z6J2; [2]) was “below the threshold” and the pKd (IL16_4, Q14005; [2]) was 3.55. The pKd (Inadl_2, Q8NI35; [2]) was “below the threshold”, the pKd (Inadl_6, Q8NI35; [2]) was “below the threshold” and the pKd (Inadl_9, Q8NI35; [2]) was “below the threshold”. For the same binder, the pKd (LIN7B, Q9HAP6; [2]) was “below the threshold”, the pKd (LRRC7, Q96NW7; [2]) was “below the threshold” and the pKd (MAGI1_2, Q96QZ7; [2]) was “below the threshold”. The pKd (MAST1, Q9Y2H9; [2]) was 3.69, the pKd (MPDZ_10, O75970; [2]) was “below the threshold” and the pKd (MPP6, Q9NZW5; [2]) was “below the threshold”. The pKd (NHERF2_2, Q15599; [2]) was “below the threshold”, the pKd (NHERF4_1, Q86UT5-2; [2]) was “below the threshold” and the pKd (NOS1, P29475; [2]) was 3.62. For the same binder, the pKd (PARD3B_1, Q8TEW8; [2]) was 4.89, the pKd (PARD3_3, Q8TEW0; [2]) was “below the threshold” and the pKd (RADIL, Q96JH8; [2]) was 3.98. The pKd (SNTG2, Q9NY99; [2]) was “below the threshold”, the pKd (SNX27, Q96L92; [2]) was “below the threshold” and the pKd (SYNJ2BP, P57105; [2]) was “below the threshold”. For the same binder, the pKd (TJP2_1, Q9UDY2; [2]) was “below the threshold”.

Source: paper PMC9482650, “Quantitative fragmentomics allow affinity mapping of interactomes” (Nature Communications, 2022)
